Reference: US20160083465A1 (AVEO PHARMACEUTICALS, published 2016)

T1: mouse IgG1 Fc-mature human GDF15 fusion protein (mFc-rhGDF15) (mouse; human)
T1 construct: Made in CHOK1SV cells, purified by Protein A and size exclusion; also called mouse Fc fused to human GDF15
T1 chain: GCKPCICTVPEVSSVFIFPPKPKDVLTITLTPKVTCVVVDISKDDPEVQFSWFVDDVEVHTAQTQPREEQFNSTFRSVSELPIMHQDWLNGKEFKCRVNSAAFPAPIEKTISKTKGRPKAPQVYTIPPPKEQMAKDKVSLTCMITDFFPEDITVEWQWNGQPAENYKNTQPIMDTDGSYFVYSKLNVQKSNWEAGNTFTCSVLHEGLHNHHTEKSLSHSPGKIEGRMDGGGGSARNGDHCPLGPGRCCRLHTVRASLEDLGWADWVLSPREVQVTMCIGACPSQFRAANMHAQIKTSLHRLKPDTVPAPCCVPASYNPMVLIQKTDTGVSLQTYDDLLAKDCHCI

B1: Hu01G06-105 (antibody, human IgG1, kappa)
heavy: not shown
light: DIQMTQSPSSLSASVGDRVTITCRTSENLHNYLAWYQQKPGKSPKLLIYDAKTLADGVPSRFSGSGSGTDYTLTISSLQPEDFATYYCQHFWSSPYTFGQGTKLEIKRTVAAPSVFIFPPSDEQLKSGTASVVCLLNNFYPREAKVQWKVDNALQSGNSQESVTEQDSKDSTYSLSSTLTLSKADYEKHKVYACEVTHQGLSSPVTKSFNRGEC
notes: Humanized, human IgG1 kappa; tested in supernatant
B2: Hu01G06-100 (antibody, human IgG1, kappa)
heavy: not shown
light: DIQMTQSPSSLSASVGDRVTITCRTSENLHNYLAWYQQKPGKSPKLLVYDAKTLADGVPSRFSGSGSGTDYTLTISSLQPEDFATYYCQHFWSSPYTFGQGTKLEIKRTVAAPSVFIFPPSDEQLKSGTASVVCLLNNFYPREAKVQWKVDNALQSGNSQESVTEQDSKDSTYSLSSTLTLSKADYEKHKVYACEVTHQGLSSPVTKSFNRGEC
notes: as for B1
B3: Hu01G06-101 (antibody, human IgG1, kappa)
heavy: not shown
light: DIQMTQSPSSLSASVGDRVTITCRTSENLHNYLAWYQQKPGKSPKLLVYDAKTLADGVPSRFSGSGSGTDYTLTISSLQPEDFATYYCQHFWSSPYTFGQGTKLEIKRTVAAPSVFIFPPSDEQLKSGTASVVCLLNNFYPREAKVQWKVDNALQSGNSQESVTEQDSKDSTYSLSSTLTLSKADYEKHKVYACEVTHQGLSSPVTKSFNRGEC
notes: as for B1
B4: Hu01G06-102 (antibody, human IgG1, kappa)
heavy: not shown
light: DIQMTQSPSSLSASVGDRVTITCRTSENLHNYLAWYQQKPGKSPKLLVYDAKTLADGVPSRFSGSGSGTDYTLTISSLQPEDFATYYCQHFWSSPYTFGQGTKLEIKRTVAAPSVFIFPPSDEQLKSGTASVVCLLNNFYPREAKVQWKVDNALQSGNSQESVTEQDSKDSTYSLSSTLTLSKADYEKHKVYACEVTHQGLSSPVTKSFNRGEC
notes: as for B1
B5: Hu01G06-103 (antibody, human IgG1, kappa)
heavy: not shown
light: DIQMTQSPSSLSASVGDRVTITCRTSENLHNYLAWYQQKPGKSPKLLVYDAKTLADGVPSRFSGSGSGTDYTLTISSLQPEDFATYYCQHFWSSPYTFGQGTKLEIKRTVAAPSVFIFPPSDEQLKSGTASVVCLLNNFYPREAKVQWKVDNALQSGNSQESVTEQDSKDSTYSLSSTLTLSKADYEKHKVYACEVTHQGLSSPVTKSFNRGEC
notes: as for B1
B6: Hu01G06-104 (antibody, human IgG1, kappa)
heavy: not shown
light: DIQMTQSPSSLSASVGDRVTITCRTSENLHNYLAWYQQKPGKSPKLLVYDAKTLADGVPSRFSGSGSGTDYTLTISSLQPEDFATYYCQHFWSSPYTFGQGTKLEIKRTVAAPSVFIFPPSDEQLKSGTASVVCLLNNFYPREAKVQWKVDNALQSGNSQESVTEQDSKDSTYSLSSTLTLSKADYEKHKVYACEVTHQGLSSPVTKSFNRGEC
notes: as for B1
B7: Hu01G06-106 (antibody, human IgG1, kappa)
heavy: not shown
light: DIQMTQSPSSLSASVGDRVTITCRTSENLHNYLAWYQQKPGKSPKLLIYDAKTLADGVPSRFSGSGSGTDYTLTISSLQPEDFATYYCQHFWSSPYTFGQGTKLEIKRTVAAPSVFIFPPSDEQLKSGTASVVCLLNNFYPREAKVQWKVDNALQSGNSQESVTEQDSKDSTYSLSSTLTLSKADYEKHKVYACEVTHQGLSSPVTKSFNRGEC
notes: as for B1
B8: Hu01G06-107 (antibody, human IgG1, kappa)
heavy: not shown
light: DIQMTQSPSSLSASVGDRVTITCRTSENLHNYLAWYQQKPGKSPKLLIYDAKTLADGVPSRFSGSGSGTDYTLTISSLQPEDFATYYCQHFWSSPYTFGQGTKLEIKRTVAAPSVFIFPPSDEQLKSGTASVVCLLNNFYPREAKVQWKVDNALQSGNSQESVTEQDSKDSTYSLSSTLTLSKADYEKHKVYACEVTHQGLSSPVTKSFNRGEC
notes: as for B1
B9: Hu01G06-108 (antibody, human IgG1, kappa)
heavy: not shown
light: DIQMTQSPSSLSASVGDRVTITCRTSENLHNYLAWYQQKPGKSPKLLIYDAKTLADGVPSRFSGSGSGTDYTLTISSLQPEDFATYYCQHFWSSPYTFGQGTKLEIKRTVAAPSVFIFPPSDEQLKSGTASVVCLLNNFYPREAKVQWKVDNALQSGNSQESVTEQDSKDSTYSLSSTLTLSKADYEKHKVYACEVTHQGLSSPVTKSFNRGEC
notes: as for B1
B10: Hu01G06-109 (antibody, human IgG1, kappa)
heavy: not shown
light: DIQMTQSPSSLSASVGDRVTITCRTSENLHNYLAWYQQKPGKSPKLLIYDAKTLADGVPSRFSGSGSGTDYTLTISSLQPEDFATYYCQHFWSSPYTFGQGTKLEIKRTVAAPSVFIFPPSDEQLKSGTASVVCLLNNFYPREAKVQWKVDNALQSGNSQESVTEQDSKDSTYSLSSTLTLSKADYEKHKVYACEVTHQGLSSPVTKSFNRGEC
notes: as for B1
B11: Hu01G06-110 (antibody, human IgG1, kappa)
heavy: not shown
light: DIQMTQSPSSLSASVGDRVTITCRTSENLHNYLAWYQQKPGKAPKLLIYDAKTLADGVPSRFSGSGSGTDYTLTISSLQPEDFATYYCQHFWSSPYTFGQGTKLEIKRTVAAPSVFIFPPSDEQLKSGTASVVCLLNNFYPREAKVQWKVDNALQSGNSQESVTEQDSKDSTYSLSSTLTLSKADYEKHKVYACEVTHQGLSSPVTKSFNRGEC
notes: as for B1
B12: Hu01G06-111 (antibody, human IgG1, kappa)
heavy: not shown
light: DIQMTQSPSSLSASVGDRVTITCRTSENLHNYLAWYQQKPGKAPKLLIYDAKTLADGVPSRFSGSGSGTDYTLTISSLQPEDFATYYCQHFWSSPYTFGQGTKLEIKRTVAAPSVFIFPPSDEQLKSGTASVVCLLNNFYPREAKVQWKVDNALQSGNSQESVTEQDSKDSTYSLSSTLTLSKADYEKHKVYACEVTHQGLSSPVTKSFNRGEC
notes: as for B1
B13: Hu01G06-112 (antibody, human IgG1, kappa)
heavy: not shown
light: DIQMTQSPSSLSASVGDRVTITCRTSENLHNYLAWYQQKPGKAPKLLIYDAKTLADGVPSRFSGSGSGTDYTLTISSLQPEDFATYYCQHFWSSPYTFGQGTKLEIKRTVAAPSVFIFPPSDEQLKSGTASVVCLLNNFYPREAKVQWKVDNALQSGNSQESVTEQDSKDSTYSLSSTLTLSKADYEKHKVYACEVTHQGLSSPVTKSFNRGEC
notes: as for B1
B14: Hu01G06-113 (antibody, human IgG1, kappa)
heavy: not shown
light: DIQMTQSPSSLSASVGDRVTITCRTSENLHNYLAWYQQKPGKAPKLLIYDAKTLADGVPSRFSGSGSGTDYTLTISSLQPEDFATYYCQHFWSSPYTFGQGTKLEIKRTVAAPSVFIFPPSDEQLKSGTASVVCLLNNFYPREAKVQWKVDNALQSGNSQESVTEQDSKDSTYSLSSTLTLSKADYEKHKVYACEVTHQGLSSPVTKSFNRGEC
notes: as for B1
B15: Hu01G06-114 (antibody, human IgG1, kappa)
heavy: not shown
light: DIQMTQSPSSLSASVGDRVTITCRTSENLHNYLAWYQQKPGKAPKLLIYDAKTLADGVPSRFSGSGSGTDYTLTISSLQPEDFATYYCQHFWSSPYTFGQGTKLEIKRTVAAPSVFIFPPSDEQLKSGTASVVCLLNNFYPREAKVQWKVDNALQSGNSQESVTEQDSKDSTYSLSSTLTLSKADYEKHKVYACEVTHQGLSSPVTKSFNRGEC
notes: as for B1
B16: Hu06C11-1 (antibody, human IgG1, kappa)
heavy: not shown
light: DIVMTQSQKFMSTSVGDRVSVTCKASQNVGTNVAWFQQKPGQSPKALIYSASYRYSGVPDRFTGSGSGTDFILTISNVQSEDLAEYFCQQYNNYPLTFGAGTKLELKRTVAAPSVFIFPPSDEQLKSGTASVVCLLNNFYPREAKVQWKVDNALQSGNSQESVTEQDSKDSTYSLSSTLTLSKADYEKHKVYACEVTHQGLSSPVTKSFNRGEC
notes: Mouse variable regions, human IgG1 and kappa constant regions; also called Chimeric 06C11
B17: Hu06C11-27 (antibody, human IgG1, kappa)
heavy: not shown
light: DIQMTQSPSSLSASVGDRVTITCKASQNVGTNVAWFQQKPGKAPKSLIYSASYRYSGVPSRFSGSGSGTDFTLTISSLQPEDFATYYCQQYNNYPLTFGQGTKLEIKRTVAAPSVFIFPPSDEQLKSGTASVVCLLNNFYPREAKVQWKVDNALQSGNSQESVTEQDSKDSTYSLSSTLTLSKADYEKHKVYACEVTHQGLSSPVTKSFNRGEC
notes: Humanized, human IgG1 kappa
B18: Hu06C11-30 (antibody, human IgG1, kappa)
heavy: not shown
light: DIQMTQSPSSLSASVGDRVTITCKASQNVGTNVAWFQQKPGKAPKSLIYSASYRYSGVPSRFSGSGSGTDFTLTISSLQPEDFATYYCQQYNNYPLTFGQGTKLEIKRTVAAPSVFIFPPSDEQLKSGTASVVCLLNNFYPREAKVQWKVDNALQSGNSQESVTEQDSKDSTYSLSSTLTLSKADYEKHKVYACEVTHQGLSSPVTKSFNRGEC
notes: Humanized, human IgG1 kappa

Molecular target: T1, mouse IgG1 Fc-mature human GDF15 fusion …
Assay: SPR Biacore T100, 37 C, antibody from supernatant captured by anti-human IgG Fc, antigen in solution

B1 and B2 are within 1.5-fold of each other in Kd: 0.13 nM for the first, 0.15 nM for the second.

B3 and B4 are within 1.5-fold of each other in Kd: 0.14 nM for the first, 0.11 nM for the second.

B5 and B6 are within 1.5-fold of each other in Kd: 0.11 nM for the first, 0.12 nM for the second.

B7 and B8 are within 1.5-fold of each other in Kd: 0.16 nM for the first, 0.12 nM for the second.

B9 and B10 are within 1.5-fold of each other in Kd: 0.12 nM for the first, 0.13 nM for the second.

B11 and B12 are within 1.5-fold of each other in Kd: 0.14 nM for the first, 0.16 nM for the second.

B13 and B14 are within 1.5-fold of each other in Kd: 0.12 nM for the first, 0.11 nM for the second.

Binder B15 has a Kd of 0.13 nM.

B1 and B2 are within 1.5-fold of each other in koff: 0.00056 s⁻¹ for the first, 0.00062 s⁻¹ for the second.

B3 and B4 are within 1.5-fold of each other in koff: 0.00063 s⁻¹ for the first, 0.00046 s⁻¹ for the second.

B5 and B6 are within 1.5-fold of each other in koff: 0.00047 s⁻¹ for the first, 0.00052 s⁻¹ for the second.

B7 and B8 are within 1.5-fold of each other in koff: 0.0007 s⁻¹ for the first, 0.00047 s⁻¹ for the second.

B9 and B10 are within 1.5-fold of each other in koff: 0.00046 s⁻¹ for the first, 0.00056 s⁻¹ for the second.

B11 and B12 are within 1.5-fold of each other in koff: 0.00058 s⁻¹ for the first, 0.00066 s⁻¹ for the second.

B13 and B14 are within 1.5-fold of each other in koff: 0.00053 s⁻¹ for the first, 0.00048 s⁻¹ for the second.

Binder B15 has a koff of 0.00054 s⁻¹.

B1 and B2 are within 1.5-fold of each other in kon: 4.3e+06 M⁻¹ s⁻¹ for the first, 4.1e+06 M⁻¹ s⁻¹ for the second.

B3 and B4 are the same in kon: 4.4e+06 M⁻¹ s⁻¹ for the first, 4.4e+06 M⁻¹ s⁻¹ for the second.

B5 and B6 are within 1.5-fold of each other in kon: 4.4e+06 M⁻¹ s⁻¹ for the first, 4.5e+06 M⁻¹ s⁻¹ for the second.

B7 and B8 are within 1.5-fold of each other in kon: 4.3e+06 M⁻¹ s⁻¹ for the first, 4.1e+06 M⁻¹ s⁻¹ for the second.

B9 and B10 are within 1.5-fold of each other in kon: 4.2e+06 M⁻¹ s⁻¹ for the first, 4.6e+06 M⁻¹ s⁻¹ for the second.

B11 and B12 are the same in kon: 4.3e+06 M⁻¹ s⁻¹ for the first, 4.3e+06 M⁻¹ s⁻¹ for the second.

B13 and B14 are within 1.5-fold of each other in kon: 4.7e+06 M⁻¹ s⁻¹ for the first, 4.5e+06 M⁻¹ s⁻¹ for the second.

Binder B15 has a kon of 4.5e+06 M⁻¹ s⁻¹.

Molecular target: T1, mouse IgG1 Fc-mature human GDF15 fusion …
Assay: SPR Biacore T100, 37 C, purified antibody captured by anti-human IgG Fc, antigen in solution
Experimental: Goat anti-human IgGs (Fc fragment specific, Jackson ImmunoResearch, West Grove, Pa.) were immobilized on carboxymethylated dextran CM4 sensor chips by amine coupling, according to a standard protocol. Analyses were performed at 37° C. using PBS containing 0.05% surfactant P20 as running buffer. The antibodies were captured in individual flow cells at a flow rate of 10 μL/minute. Injection time was varied for each antibody to yield an Rmax between 30 and 60 RU. […] The dissociation phase was monitored for up to 1200 seconds. The surface was then regenerated with two 60-second injections of 10 mM Glycine-HCl, pH 2.25, at a flow rate of 30 μL/minute.
Kinetic parameters were determined using the kinetic function of the BIAevaluation software (GE Healthcare) with double reference subtraction.

B16 and B17 are the same in Kd: 0.18 nM for the first, 0.18 nM for the second.

For B18, the Kd was 0.18 nM.

B16 and B17 are within 1.5-fold of each other in koff: 0.00084 s⁻¹ for the first, 0.00082 s⁻¹ for the second.

Binder B18 has a koff of 0.00087 s⁻¹.

B16 and B17 are within 1.5-fold of each other in kon: 5.3e+06 M⁻¹ s⁻¹ for the first, 4.7e+06 M⁻¹ s⁻¹ for the second.

Binder B18 has a kon of 4.8e+06 M⁻¹ s⁻¹.
